Data on 1 molecule can be found in patent US20250189530A1 (STCUBE, published 2025).

In assay [1] the target is T1, BTN1A1 Peptide 4 (human).
T1 construct: also called BTN1A1-pep4- WT; Pep4
T1 peptide: EVEVGDRTDWAIGVC
Put plainly: ELISA, 10X dilution.

The target of assay [2] is T2, hBTN1A1 ICD (human, UniProt Q13410 270-526).
T2 sequence: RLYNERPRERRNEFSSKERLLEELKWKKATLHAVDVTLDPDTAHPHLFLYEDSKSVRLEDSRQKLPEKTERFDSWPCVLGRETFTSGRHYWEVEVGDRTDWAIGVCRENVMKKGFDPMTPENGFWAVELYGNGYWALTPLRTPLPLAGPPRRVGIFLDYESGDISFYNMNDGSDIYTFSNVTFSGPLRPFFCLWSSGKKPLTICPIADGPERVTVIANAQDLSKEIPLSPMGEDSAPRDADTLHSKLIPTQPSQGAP
The assay can be described thus: ELISA, 10X dilution. Background: ELISA stands for enzyme-linked immunosorbent assay.

Assay [3] concerns the target T3, denatured hBTN1A1 ICD (human, UniProt Q13410 270-526).
T3 construct: Same protein as hBTN1A1 ICD, denatured before the ELISA; also called hBTN1A1 ICD denatured; Denatured ICD
T3 sequence: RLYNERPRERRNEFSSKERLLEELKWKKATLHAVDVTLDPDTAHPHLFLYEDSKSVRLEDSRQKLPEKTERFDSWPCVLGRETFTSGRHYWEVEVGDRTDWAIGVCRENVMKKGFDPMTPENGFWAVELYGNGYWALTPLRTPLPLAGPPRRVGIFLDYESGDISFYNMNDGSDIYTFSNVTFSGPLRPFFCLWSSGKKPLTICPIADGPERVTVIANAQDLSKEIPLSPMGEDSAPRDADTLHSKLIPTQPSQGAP
The assay can be described thus: ELISA, 10X dilution.

The target in assay [4] is T1, BTN1A1 Peptide 4. The assay can be described thus: ELISA, stock solution.
The target in assay [5] is T2, hBTN1A1 ICD. Put plainly: ELISA, stock solution.
In assay [6] the target is T3, denatured hBTN1A1 ICD. The assay can be described thus: ELISA, stock solution.
In assay [7] the target is T4, BTN1A1 peptide 4 Mutant 8 (T368A) (human).
T4 construct: The entry already carries the mutation; also called BTN1A1-pep4- Mutant 8
T4 peptide: EVEVGDRADWAIGVC
Put plainly: KD against BTN1A1-pep4- WT.

Assay [8] deals with T5, BTN1A1 peptide 4 Mutant 9 (D369A) (human).
T5 construct: The entry already carries the mutation; also called BTN1A1-pep4- Mutant 9
T5 peptide: EVEVGDRTAWAIGVC
Put plainly: KD against BTN1A1-pep4- WT.

In assay [9] the target is T6, BTN1A1 peptide 4 Mutant 10 (W370A) (human).
T6 construct: The entry already carries the mutation; also called BTN1A1-pep4- Mutant 10; mutant peptide #10
T6 peptide: EVEVGDRTDAAIGVC
The assay can be described thus: KD against BTN1A1-pep4- WT.

The target of assay [10] is T7, BTN1A1 peptide 4 Mutant 11 (A371G) (human).
T7 construct: The entry already carries the mutation; also called BTN1A1-pep4- Mutant 11
T7 peptide: EVEVGDRTDWGIGVC
The assay can be described thus: KD against BTN1A1-pep4- WT.

For assay [11], the target named is T8, BTN1A1 peptide 4 Mutant 12 (I372A) (human).
T8 construct: The entry already carries the mutation; also called Mutant 12 (1372A); BTN1A1-pep4- Mutant 12
T8 peptide: EVEVGDRTDWAAGVC
Put plainly: KD against BTN1A1-pep4- WT.

The next assay concerns the target T9, TRIM11 peptide.
T9 peptide: EVEVGDRTSWALGVC
Put plainly: KD against BTN1A1-pep4- WT.

Assay [12] addresses T1, BTN1A1 Peptide 4. Put plainly: KD against BTN1A1-pep4- WT.
Assay [13] deals with T10, BTN1A1 peptide 4 Mutant 5 (G365A) (human).
T10 construct: The entry already carries the mutation; also called BTN1A1-pep4- Mutant 5
T10 peptide: EVEVADRTDWAIGVC
Put plainly: KD against BTN1A1-pep4- WT.

Assay [14] has as its target T11, BTN1A1 peptide 4 Mutant 6 (D366A) (human).
T11 construct: The entry already carries the mutation; also called BTN1A1-pep4- Mutant 6; mutant peptide #6
T11 peptide: EVEVGARTDWAIGVC
The assay can be described thus: KD against BTN1A1-pep4- WT.

Assay [15] addresses T12, BTN1A1 peptide 4 Mutant 7 (R367A) (human).
T12 construct: The entry already carries the mutation; also called BTN1A1-pep4- Mutant 7
T12 peptide: EVEVGDATDWAIGVC
The assay can be described thus: KD against BTN1A1-pep4- WT.

Assay [16] deals with T13, CILK1 peptide AQPVHGRTDWASKYA
T13 construct: also called serine/threonine-protein kinase ICK (CILK) isoform 2 peptide
T13 peptide: AQPVHGRTDWASKYA
The assay can be described thus: SPR sensorgrams (Response in RU), 15.625, 31.25, 62.5, 125 and 500 nM.

B1: STC43H11-1 (antibody, V domains shown)
VH: QSLEESGGRLVTPGGSLTLTCTVSGIDLSSYAMGWVRQAPGEGLEWIGSIGTGGGTGYASWAKGRFTISKTSTTVDLKMTSLTASDTATYFCATSNLWGPGTLVTVSS
VL: QVLTQTASPVSAAVGGTVTINCQASQSVYNNNRCSWFQQKPGQPPKRLIYHTSTLDSGVPSRFKGSGSGTQFTLTISDVQCDDAATYYCLGNYDCSRADCAAFGGGTEVVVK
notes: From immunized New Zealand rabbits; IgG heavy chain and Kappa light chain; also called clone #43H11; Clone 43H11
As to B1, the ELISA signal worked out at 2.83 in the assay with BTN1A1 Peptide 4 [1]; 2.96 with hBTN1A1 ICD [2]; 2.9 with denatured hBTN1A1 ICD [3]; 2.88 with BTN1A1 Peptide 4 [4]; 2.93 with hBTN1A1 ICD [5]; 2.87 with denatured hBTN1A1 ICD [6]. The Fold change in assay [7] worked out at 21 fold; in [8] it was 463 fold; in assay [9], 59 fold; in assay [10] it was 16 fold; in [11] it was 126 fold; with TRIM11 peptide, 7360 fold. Besides, the Fold change with BTN1A1 Peptide 4 [12] was determined as 1 fold; in assay [13], 20 fold; in assay [14] it was 160 fold; in [15], 4 fold. In [16], the binding result is “no binding (tested: 500 nM)”.
